# Laboratory results reported in publication PMC4894655, “Three proliferating cell nuclear antigen homologues from Metallosphaera sedula form a head-to-tail heterotrimer” (Scientific Reports, 2016).
# Read-outs that look alike come from different tables or passages of the source.
# T1: MsePCNA1:MsePCNA2 heterodimer (Metallosphaera sedula, UniProt A4YCS6 1-247; A4YHP5 1-244)
# T1 construct: MsePCNA1 (Msed_0051), PCNA homologue of Metallosphaera sedula; as m1; MsePCNA2 (Msed_1792), PCNA homologue of Metallosphaera sedula; as m2; In SPR formed on the chip: MsePCNA2 immobilised on CM5, then 1 μM MsePCNA1 applied; In the pull-down and SEC formed in the mixture; Tag removal is said for the pull-down only; also called immobilised MsePCNA2 with MsePCNA1; MsePCNA1 and MsePCNA2 together; …
# T1 sequence (looked up) 1: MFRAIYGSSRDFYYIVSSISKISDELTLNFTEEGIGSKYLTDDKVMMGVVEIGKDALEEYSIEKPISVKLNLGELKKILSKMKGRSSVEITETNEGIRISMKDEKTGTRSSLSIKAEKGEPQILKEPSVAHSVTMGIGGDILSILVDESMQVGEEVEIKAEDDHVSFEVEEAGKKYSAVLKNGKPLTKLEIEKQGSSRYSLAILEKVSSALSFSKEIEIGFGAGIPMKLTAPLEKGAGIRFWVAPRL
# T1 sequence (looked up) 2: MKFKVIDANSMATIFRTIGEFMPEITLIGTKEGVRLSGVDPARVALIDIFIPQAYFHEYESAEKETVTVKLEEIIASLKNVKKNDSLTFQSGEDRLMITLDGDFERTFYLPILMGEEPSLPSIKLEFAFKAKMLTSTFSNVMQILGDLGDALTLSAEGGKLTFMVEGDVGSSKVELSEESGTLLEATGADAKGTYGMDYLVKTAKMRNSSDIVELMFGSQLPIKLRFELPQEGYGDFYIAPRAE
# T2: SsoPCNA1:MsePCNA2 complex (Sulfolobus solfataricus | …, UniProt P57766 1-249; A4YHP5 1-244)
# T2 construct: SsoPCNA1, PCNA subunit 1 of Sulfolobus solfataricus; as m4; MsePCNA2 (Msed_1792), PCNA homologue of Metallosphaera sedula; as m2; Formed on the SPR chip: MsePCNA2 immobilised on CM5, then 1 μM SsoPCNA1 applied; also called immobilised MsePCNA2 that tethered SsoPCNA1
# T2 sequence (looked up) 1: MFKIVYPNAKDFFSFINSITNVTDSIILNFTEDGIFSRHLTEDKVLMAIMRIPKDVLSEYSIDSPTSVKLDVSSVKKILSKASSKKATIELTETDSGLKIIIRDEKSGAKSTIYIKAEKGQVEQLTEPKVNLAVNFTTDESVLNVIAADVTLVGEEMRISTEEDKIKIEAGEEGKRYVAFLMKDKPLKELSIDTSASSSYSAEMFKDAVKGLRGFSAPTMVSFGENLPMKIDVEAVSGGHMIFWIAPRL
# T2 sequence (looked up) 2: T1 sequence (looked up) 2
# T3: SsoPCNA2 (Sulfolobus solfataricus)
# T3 chain: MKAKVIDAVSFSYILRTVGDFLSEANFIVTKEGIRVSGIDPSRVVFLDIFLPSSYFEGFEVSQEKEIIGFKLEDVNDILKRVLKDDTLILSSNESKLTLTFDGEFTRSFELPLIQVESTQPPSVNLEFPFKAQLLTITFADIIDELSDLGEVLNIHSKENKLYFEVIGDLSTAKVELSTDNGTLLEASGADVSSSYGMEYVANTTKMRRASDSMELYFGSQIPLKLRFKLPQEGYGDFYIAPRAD
# T4: MsePCNA2 (Metallosphaera sedula, UniProt A4YHP5 1-244)
# T4 chain: T1 sequence (looked up) 2
# T5: MsePCNA1 (Metallosphaera sedula, UniProt A4YCS6 1-247)
# T5 construct: MsePCNA1 (Msed_0051), PCNA homologue of Metallosphaera sedula; 'His6-tag-removed' is said for the pull-down only; also called Msed_0051; M. sedula PCNA homologue 1
# T5 sequence (looked up): T1 sequence (looked up) 1
# T6: SsoPCNA1 (Sulfolobus solfataricus, UniProt P57766 1-249)
# T6 construct: SsoPCNA1, PCNA subunit 1 of Sulfolobus solfataricus; also called S. solfataricus PCNA1
# T6 sequence (looked up): T2 sequence (looked up) 1
# B1: MsePCNA1 (natural protein)
# chain: T1 sequence (looked up) 1
# B2: MsePCNA2 (natural protein, Metallosphaera sedula, UniProt A4YHP5 1-244, looked up)
# chain: T1 sequence (looked up) 2
# notes: MsePCNA2 (Msed_1792), PCNA homologue of Metallosphaera sedula; 'His6-tag-removed' is said for the pull-down only; also called Msed_1792; M. sedula PCNA homologue 2
# B3: MsePCNA3 (natural protein, Metallosphaera sedula, UniProt A4YIY6 1-245, looked up)
# chain: MRIAYANAMDFKTVIEALSKLIDEVTFTFTSSGLDVVAVDRAHISLIKLHFPKEAFEEFDVEDQFRFGFNTQYMLKVMASAKRKEKIEMESREESEIVIRMLGEPPREFTIRNIEVPIQELPELKLDFDVKAKITSGGFKKAVSEIATVSDSVEIDATEMEIKLRSKESTEIEVEFSKEMGGLQEIEVKKPSVSSYPSDYLEDVLVLTRLSGFLNLLFSEQKPLQLEFNMDNGGSVVYLLAPNVG
# notes: MsePCNA3 (Msed_2250), PCNA homologue of Metallosphaera sedula; 'His6-tag-removed' is said for the pull-down only; also called Msed_2250; M. sedula PCNA homologue 3
# Tests used:
# [1] = target: SsoPCNA1:SsoPCNA2 heterodimer (Sulfolobus solfataricus) (UniProt P57766); assay: SPR; Biacore; MsePCNA2 or SsoPCNA2 immobilised on CM5, 1 μM MsePCNA1 or SsoPCNA1 applied, then MsePCNA3 or SsoPCNA3 injected at various concentrations; plateau signal fitted to a Langmuir isotherm; 10 mM HEPES-HCl pH 7.4, 150 mM NaCl
# [2] = target: T1, MsePCNA1:MsePCNA2 heterodimer; assay: as above
# [3] = target: T2, SsoPCNA1:MsePCNA2 complex; assay: as above
# [4] = target: T3, SsoPCNA2; assay: SPR; 5 nM MsePCNA1
# [5] = target: T4, MsePCNA2; assay: SPR; 5 nM MsePCNA1
# [6] = target: T3, SsoPCNA2; assay: SPR; 5 nM MsePCNA1
# [7] = target: T4, MsePCNA2; assay: SPR; 10 nM MsePCNA1
# [8] = target: T4, MsePCNA2; assay: SPR; 20 nM MsePCNA1
# [9] = target: T4, MsePCNA2; assay: SPR; 40 nM MsePCNA1
# [10] = target: T3, SsoPCNA2; assay: SPR; 10 nM MsePCNA1
# [11] = target: T4, MsePCNA2; assay: SPR; 10 nM MsePCNA1
# [12] = target: T3, SsoPCNA2; assay: SPR; 20 nM MsePCNA1
# [13] = target: T4, MsePCNA2; assay: SPR; 20 nM MsePCNA1
# [14] = target: T3, SsoPCNA2; assay: SPR; 40 nM MsePCNA1
# [15] = target: T4, MsePCNA2; assay: SPR; 40 nM MsePCNA1
# [16] = target: T3, SsoPCNA2; assay: SPR; 50 nM MsePCNA1
# [17] = target: T3, SsoPCNA2; assay: SPR; 2.5 nM MsePCNA1
# [18] = target: T4, MsePCNA2; assay: SPR; 2.5 nM MsePCNA1
# [19] = target: T3, SsoPCNA2; assay: SPR; 2.5 nM MsePCNA1
# [20] = target: T4, MsePCNA2; assay: SPR; 2.5 nM MsePCNA1
# [21] = target: T4, MsePCNA2; assay: SPR; 1.25 nM MsePCNA1
# [22] = target: T4, MsePCNA2; assay: SPR; 1.25 nM MsePCNA1
# [23] = target: T3, SsoPCNA2; assay: SPR; Biacore; about 350 RU of MsePCNA2 or SsoPCNA2 immobilised on Sensor Chip CM5; MsePCNA1 or SsoPCNA1 injected (2.5, 5, 10, 20, 40 nM), kinetic fit; 10 mM HEPES-HCl pH 7.4, 150 mM NaCl
# [24] = target: T5, MsePCNA1; assay: as above; settings: both partners purified
# [25] = target: T6, SsoPCNA1; assay: as above; settings: both partners purified
molecule,measurement,setting,value
SsoPCNA3 (natural protein),Kd,[1],200 nM
same,Kd,[2],190 nM
same,Kd,[3],170 nM
B1,koff,[4],0.00132 s⁻¹
same,koff,[5],0.00011 s⁻¹
same,Kd,[6],6.37 nM
same,koff,[7],7.99e-05 s⁻¹
same,koff,[8],5.79e-05 s⁻¹
same,koff,[9],4.29e-05 s⁻¹
same,Kd,[10],7.02 nM
same,Kd,[11],0.249 nM
same,Kd,[12],12.9 nM
same,Kd,[13],0.215 nM
same,Kd,[14],36 nM
same,Kd,[15],0.253 nM
same,Kd,[16],27.5 nM
same,koff,[17],0.00134 s⁻¹
same,koff,[18],0.000121 s⁻¹
same,Kd,[19],6.81 nM
same,Kd,[20],0.396 nM
same,koff,[21],0.000128 s⁻¹
same,Kd,[22],0.531 nM
same,Kd,[23],1.6 nM
same,koff,[23],0.0012 s⁻¹
same,kon,[23],130000 M⁻¹ s⁻¹
B2,Kd,[24],0.33 nM
same,koff,[24],8.9e-05 s⁻¹
same,kon,[24],280000 M⁻¹ s⁻¹
same,Kd,[25],1.8 nM
same,koff,[25],0.00044 s⁻¹
same,kon,[25],270000 M⁻¹ s⁻¹
B3,Kd,[2]; both partners purified,43 nM
same,Kd,[3]; both partners purified,380 nM
